From paper PMC5557857 (2017) come the findings set out here.

Assay [1] concerns the target epidermal growth factor receptor 2 (HER2) expressed on SKOV3 cells (human (endogenous in SKOV3)) (UniProt P04626). The experiment in a line: split reporter (BiFC, NanoBiT); TEC screen: HER2-expressing SKOV3 cells incubated 1 hr at ambient temperature with clarified lysates of one β9 fusion and one β10 fusion (PBS + 1% BSA), washed 3 times, luminescence 30 min after Δ11S lysate (1:20) and Nano-Glo substrate; signal-to-background, average of three days.

Assay [2] deals with T1, β10 peptide (synthetic) (Oplophorus gracilirostris, Synthetic 11-mer. The sequence is only in Table S1, so the high-affinity NanoBiT peptide 86 (HiBiT-type) variant of strand 10 is assumed. Termini are not stated.).
T1 chain: VSGWRLFKKIS
Kind of assay: luminescence complementation, 10 uM Nano-Glo substrate.

In the case of “9.29-β10 (DARPin 9.29 with β10 at the C-terminus) (designed binder)”, in assay [1], the TEC signal-to-background with PertH-β9 came to 346, the TEC signal-to-background with β9-G3 was 122, the TEC signal-to-background with β9-L73J was determined as 597 and the TEC signal-to-background with β9-LPert is 265.
In the case of “G3-β9 (DARPin G3 with β9 at the C-terminus) (designed binder)”, in assay [1], the TEC signal-to-background with PertH-β10 turned out to be 122 and the TEC signal-to-background with β10-L73J was 126.
Take “G3-β10 (DARPin G3 with β10 at the C-terminus) (designed binder)”: in assay [1], the TEC signal-to-background with PertH-β9 amounted to 103, the TEC signal-to-background with β9-L73J amounted to 1360 and the TEC signal-to-background with β9-LPert worked out at 353.
As for “β9-9.29 (DARPin 9.29 with β9 at the N-terminus) (designed binder)”, in assay [1], the TEC signal-to-background with PertH-β10 worked out at 671 and the TEC signal-to-background with β10-L73J was determined as 173.
Regarding “β9-G3 (DARPin G3 with β9 at the N-terminus) (designed binder)”, in assay [1], the TEC signal-to-background with 9.29-β10 worked out at 122 and the TEC signal-to-background with 73JH-β10 was 219.
Take “β10-G3 (DARPin G3 with β10 at the N-terminus) (designed binder)”: the TEC signal-to-background with β9-L73J in assay [1] is 197.

B1: 11S (beta-strands 1-9 of NanoLuc, main fragment of NanoBiT) (domain or fragment)
chain: MVFTLEDFVGDWEQTAAYNLDQVLEQGGVSSLLQNLAVSVTPIQRIVRSGENALKIDIHVIIPYEGLSADQMAQIEEVFKVVYPVDDHHFKVILPYGTLVIDGVTPNMLNYFGRPYEGIAVFDGKKITVTGTLWNGNKIIDERLITPDGSMLFRVTINS
B1 gave a dissociation constant Kd in assay [2] of 4 nM.
